# Experimental data reported in patent US20110191903A1, “ENGINEERING PLANT RESISTANCE TO DISEASES CAUSED BY PATHOGENS” (Pioneer Hi-Bred International, Inc., priority 2009, published 2011).
# Changes are numbered by the printed parent chain. Names may count otherwise.
# B1: Ceriporiopsis subvermispora oxalate oxidase OXOX-C variant ALT2 (glyc-), glycosylation minus, T60R/T384V/S430D relative to SEQ ID NO: 37, SEQ ID NO: 24 … (protein)
# chain: RPTENGPQIVIANNAGTYLPVLRGSGTKSSSAADATQTVPFASDDPNPRLWDIDTKNLRKVTPERGQLGAKILGPDNLPIDLQNADTLAPPTTDSGSIPNPKWPFALSHNTLYSGGWVRIQNDEVMPIAKAMAGVNMRLEAGAIRELHWHNTPEWAYILKGTTQITAVDQNGRNYLANVGPGDLWYFPEGMPHSLQGTDANNEGSEFLLIFPDGTFDSSNQFMITDWLAHTPKDVIAKNFGVDISEFDRLPSHDLYIFPGVAPPLDAKAPEDPQGTIPLPYSFEFSKVKPTQYAGGTVKIADTRTFPIAKTISVAEVTVEPGAMRELHWHPTEDEWTFFIEGQARVTIFAGQSNAQTYDYQGGDIAYIPTAWGHYVENSGNTVLRFLEIFNSPLFEDVSLAQWIANTPPAIVKATLQLSDEVINTLNKDKAFVVG
# notes: glycosylation sites removed
# B2: Ceriporiopsis subvermispora oxalate oxidase OXOX-C variant ALT5 (2-6), I54M/I60E/I99V/W118Y/F259Y/I278V/F339Y/Y359F/F396Y relative to OXOX-C-ALT1 (SEQ ID NO: … (protein)
# chain: RPTENGPQIVIANNAGTYLPVLRGSGTKSSSAADATQTVPFASDDPNPRLWDMDTKNLEKVTPERGQLGAKILGPDNLPIDLQNADTLAPPTTDSGSVPNPKWPFALSHNTLYSGGYVRIQNDEVMPIAKAMAGVNMRLEAGAIRELHWHNTPEWAYILKGTTQITAVDQNGRNYLANVGPGDLWYFPEGMPHSLQGTDANNEGSEFLLIFPDGTFDSSNQFMITDWLAHTPKDVIAKNFGVDISEFDRLPSHDLYIYPGVAPPLDAKAPEDPQGTVPLPYSFEFSKVKPTQYAGGTVKIADTRTFPIAKTISVAEVTVEPGAMRELHWHPTEDEWTYFIEGQARVTIFAGQSNAQTFDYQGGDIAYIPTAWGHYVENSGNTQLRFLEIFNSPLYEDVSLAQWIANTPPAIVKATLQLSDEVINTLNKQKAFVVG
# B3: Ceriporiopsis subvermispora oxalate oxidase OXOX-C variant ALT3 (1-8), I54M/I99V/W118Y/F259Y/I278V/F339Y/F396Y relative to OXOX-C-ALT1 (SEQ ID NO: 35), SEQ ID … (protein)
# chain: B2 chain with E59I, F358Y
# B4: Ceriporiopsis subvermispora oxalate oxidase OXOX-C, SEQ ID NO: 18 (Gelatoporia subvermispora B) (protein)
# chain: B1 chain with R59T, V383T, D429S
# B5: Ceriporiopsis subvermispora oxalate oxidase OXOX-C variant ALT4 (1-23), W118Y/I166V/F259Y/I278V/Y282F/F339Y/F396Y relative to OXOX-C-ALT1 (SEQ ID NO: 35), SEQ … (protein)
# chain: B2 chain with M53I, E59I, V98I, I165V, Y281F, F358Y
# Assays:
# Assay type in all cases: biochemical, Ceriporiopsis subvermispora
# [1] = substrate: O=C(O)C(=O)O; test: Oxalate oxidase kinetics, coupled horse radish peroxidase assay, ALT2 (glyc-)
# Text: (§1) The E. coli expression system was based on the published protocol of Escutia et al. Escutia et al., Cloning and sequencing of two Ceriporiopsis subvermispora bicupin oxalate oxidase allelic isoforms: implications for the reaction specificity of oxalate oxidases and decarboxylases. (2005). The coding sequence for the mature OXOX enzyme was inserted in E. coli expression vector pET32 (Invitrogen) to include a 6× histidine tag at the C-terminus. The resulting expression plasmid was transformed into E. coli strain BL21Star pLysS (Invitrogen).
# (§2) E. coli cultures were grown at 37° C. At optical density 0.4, arabinose was added to a concentration or 0.4%. After another hour of growth at 37° C., MnCl2 was added to 5 mM and IPTG to 1 mM. Cultures were then grown at 25° C. for 16 hours. Cells were harvested by centrifugation at 4000 rpm for 10 min. The supernatant was discarded and cell pellets were kept at −80° C. for at least one hour. Pellets were resuspended in total 40 ml of lysis buffer with 50 mM phosphate buffer pH7, 2 mg/ml protease inhibitor (sigma P-8465), 100 mM KCL, 1/1000 lysozyme, 1/2000 endonuclease, and incubated at 37° C. with shaking for one hour, followed by sonication. Cellular debris was removed by centrifugation and the clarified supernatant was poured into a new tube. Nickel resin (Qiagen) was added. After a short period of incubation, the slurry was poured onto a column and washed with buffer. Purified OXOX protein was eluted from the resin in 50 mM succinate pH 5, 100 mM KCl. The E. coli expression procedure was scalable allowing large scale protein production for kinetic analysis as well as small scale production for high throughput screening of libraries.
# (§3) Oxalate oxidase enzymatic activity was determined in a coupled reaction. Oxalate oxidase converts oxalic acid to carbon dioxide and hydrogen peroxide. In the presence of horse radish peroxidase, hydrogen peroxide reacts with 3-methyl-2-benzothiazolinone hydrazone (MBTH) and N,N-dimethylaniline (DMA) to form indamine dye, which can be detected spectrophotmetrically or colorimetrically as described by Laker, M. F., Hoffman, A. F., and Meeuse, J. D. (1980) Clinical Chemistry 26, 827-830. The coupled reaction was used for characterization of oxalate oxidase kinetic properties as well as in a screening procedure to identify oxalate oxidase variants with improved enzymatic properties.
# Three potential glycosylations sites with the consensus amino acid sequence N—X—(S/T) were identified in OXOX-C at amino acid positions 60, 384 and 430 in SEQ ID NO:27. Site-directed mutagenesis was used to alter these sites (Quickchange, Stratagene). Every possible amino acid substitution was generated at the third amino acid position of each potential glyosylation site. The resulting variants were screened for activity using the enzymatic assay described in Example 3. […] These variants correspond to sequences OXOX-C-MOD1-ALT1 (SEQ ID NO:23) and OXOX-C-MOD1-ALT2 (SEQ ID NO:24).
# (§4) More modest improvements in Km and Kcat were observed under lower pH conditions. Coupled reaction was preformed as described in Example 3. Enzyme kinetic parameters were determined by standard methods as described in Segel (1976) Biochemical calculations, 2nd Edition. John Wiley & Sons, London, New York, Sydney, Toronto.
# [2] = substrate: O=C(O)C(=O)O; test: Oxalate oxidase kinetics, coupled horse radish peroxidase assay, ALT5 (2-6)
# Text: as §1, §2, §3
# (§5) DNA shuffling was performed as described elsewhere herein. A polymerase chain reaction product corresponding to the OXOX-C coding sequence was fragmented by limited nuclease treatment. Synthetic oligonucleotides encoding sequence diversity from oxalate decarboxylase sequences found in public databases were added. A polymerase chain reaction procedure was performed on the mixture to yield a library of full length OXOX-C coding sequences with additional diversity incorporated. The resulting library was inserted in expression vector pET32, E. coli cells were transformed and protein was expressed, as described in Example 2. A tiered screening strategy was devised based on the OXOX protein expression and enzymatic activity determination procedures described in Examples 2 and 3, respectively. A high throughput screening process based on colorimetric determination of OXOX activity was utilized to identify individual E. coli strains harboring active OXOX variants. These OXOX-active strains were reassayed using quantitative spectrophotometric determination of OXOX activity. […] Three rounds of this iterative screening and selection procedure were completed, and OXOX variants with up to 8-fold improved activity were identified
# as §4
# [3] = substrate: O=C(O)C(=O)O; test: Oxalate oxidase kinetics, coupled horse radish peroxidase assay, ALT3 (1-8)
# Text: as §1, §2, §3, §5, §4
# [4] = substrate: O=C(O)C(=O)O; test: Oxalate oxidase kinetics, coupled horse radish peroxidase assay, OXOX-C
# Text: Sequences of both OXOX C and G alleles were published by Escutia et al., 2005 and were deposited with EMBL: OXOX-C partial genomic DNA, Acession No. AJ746414; OXOX-C partial cDNA, Acession No. AJ563659; OXOX-G genomic DNA, Acession No. AJ563660; OXOX-G cDNA, Acession No. AJ746412. See also, Escutia et al., Cloning and sequencing of two Ceriporiopsis subvermispora bicupin oxalate oxidase allelic isoforms: implications for the reaction specificity of oxalate oxidases and decarboxylases. (2005). Based on published sequence, mature proteins of OXOX C (SEQ ID NO: 21) and G (SEQ ID NO: 22) were synthesized and fused to N-terminal barley alpha amylase signal sequence (BAA ss; SEQ ID NO:3). The fungal OXOX coding sequence was synthesized with codon usage suitable for expression in soybean (FIG. 1A) and E. coli (FIG. 1B).
# as §1, §2, §3, §4
# [5] = substrate: O=C(O)C(=O)O; test: Oxalate oxidase kinetics, coupled horse radish peroxidase assay, ALT4 (1-23)
# Text: as §1, §2, §3, §5, §4
protein,measurement,setting,value
B1,Km,"[1]; other: pH 3.8, pH 3.8",280 µM
same,kcat,"[1]; other: pH 3.8, pH 3.8",5.60 s⁻¹
same,Km,"[1]; other: pH 4.8, pH 4.8",1240 µM
same,kcat,"[1]; other: pH 4.8, pH 4.8",2.99 s⁻¹
same,Km,"[1]; other: pH 5.8, pH 5.8",5900 µM
same,kcat,"[1]; other: pH 5.8, pH 5.8",0.91 s⁻¹
B2,Km,"[2]; other: pH 3.8, pH 3.8",460 µM
same,kcat,"[2]; other: pH 3.8, pH 3.8",10.01 s⁻¹
same,Km,"[2]; other: pH 4.8, pH 4.8",2320 µM
same,kcat,"[2]; other: pH 4.8, pH 4.8",7.06 s⁻¹
same,Km,"[2]; other: pH 5.8, pH 5.8",8910 µM
same,kcat,"[2]; other: pH 5.8, pH 5.8",2.44 s⁻¹
B3,Km,"[3]; other: pH 3.8, pH 3.8",310 µM
same,kcat,"[3]; other: pH 3.8, pH 3.8",4.69 s⁻¹
same,Km,"[3]; other: pH 4.8, pH 4.8",1700 µM
same,kcat,"[3]; other: pH 4.8, pH 4.8",3.21 s⁻¹
same,Km,"[3]; other: pH 5.8, pH 5.8",8380 µM
same,kcat,"[3]; other: pH 5.8, pH 5.8",1.36 s⁻¹
B4,Km,"[4]; other: pH 3.8, pH 3.8",350 µM
same,kcat,"[4]; other: pH 3.8, pH 3.8",5.45 s⁻¹
same,Km,"[4]; other: pH 4.8, pH 4.8",1240 µM
same,kcat,"[4]; other: pH 4.8, pH 4.8",2.74 s⁻¹
same,Km,"[4]; other: pH 5.8, pH 5.8",5950 µM
same,kcat,"[4]; other: pH 5.8, pH 5.8",0.91 s⁻¹
B5,Km,"[5]; other: pH 3.8, pH 3.8",350 µM
same,kcat,"[5]; other: pH 3.8, pH 3.8",4.08 s⁻¹
same,Km,"[5]; other: pH 4.8, pH 4.8",1320 µM
same,kcat,"[5]; other: pH 4.8, pH 4.8",2.70 s⁻¹
same,Km,"[5]; other: pH 5.8, pH 5.8",5510 µM
same,kcat,"[5]; other: pH 5.8, pH 5.8",0.85 s⁻¹
